Data taken from IntAct's records for PubMed 28869608.

B1: Protein canopy homolog 2 (Mus musculus), Q9QXT0 (parent)
chain: MKGWGWLALLLGVLLGTAWARRSQDLHCGACRALVDELEWEIARVDPKKTIQMGSFRINPDGSQSVVEVPYARSEAHLTELLEEVCDRMKEYGEQIDPSTHRKNYVRVVSRNGESSELDLQGIRIDSDISGTLKFACESIVEEYEDELIEFFSREADNVKDKLCSKRTDLCDHALHRSHDEL
partner: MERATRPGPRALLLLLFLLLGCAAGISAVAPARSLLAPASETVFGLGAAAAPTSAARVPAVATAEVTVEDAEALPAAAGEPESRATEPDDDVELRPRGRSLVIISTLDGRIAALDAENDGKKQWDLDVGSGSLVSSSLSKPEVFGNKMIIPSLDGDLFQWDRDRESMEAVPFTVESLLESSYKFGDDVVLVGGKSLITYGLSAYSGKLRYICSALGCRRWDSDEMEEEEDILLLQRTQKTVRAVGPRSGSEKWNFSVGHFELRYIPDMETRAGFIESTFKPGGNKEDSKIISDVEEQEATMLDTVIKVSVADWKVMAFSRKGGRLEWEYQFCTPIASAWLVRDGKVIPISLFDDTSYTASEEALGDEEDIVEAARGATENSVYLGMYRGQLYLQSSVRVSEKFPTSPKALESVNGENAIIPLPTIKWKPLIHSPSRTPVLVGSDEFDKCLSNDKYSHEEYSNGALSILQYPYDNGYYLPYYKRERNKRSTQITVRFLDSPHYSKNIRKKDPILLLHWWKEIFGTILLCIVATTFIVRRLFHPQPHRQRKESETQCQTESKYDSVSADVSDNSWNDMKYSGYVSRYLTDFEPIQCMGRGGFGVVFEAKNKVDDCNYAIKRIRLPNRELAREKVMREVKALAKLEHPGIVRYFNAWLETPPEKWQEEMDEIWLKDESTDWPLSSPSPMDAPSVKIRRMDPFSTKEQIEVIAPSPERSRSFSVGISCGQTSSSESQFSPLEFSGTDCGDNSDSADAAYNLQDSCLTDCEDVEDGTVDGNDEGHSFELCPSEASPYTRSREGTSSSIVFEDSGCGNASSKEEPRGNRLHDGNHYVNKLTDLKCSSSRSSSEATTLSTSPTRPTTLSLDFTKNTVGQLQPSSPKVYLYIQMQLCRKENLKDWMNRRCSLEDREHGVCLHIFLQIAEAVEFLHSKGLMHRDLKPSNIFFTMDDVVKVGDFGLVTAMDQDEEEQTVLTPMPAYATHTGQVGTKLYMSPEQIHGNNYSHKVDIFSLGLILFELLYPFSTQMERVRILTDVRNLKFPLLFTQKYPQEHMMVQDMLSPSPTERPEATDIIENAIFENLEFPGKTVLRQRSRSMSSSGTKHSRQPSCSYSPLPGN

Variants of: B1
Settings: with Eif2ak3, Q9Z2B5

| Variant | effect of a mutation on the interaction |
| --- | --- |
| MKGWGWLALLLGVLLGTAWARRSQDLHAGAARALVDELEWEIARVDPKKTIQMGSFRINPDGSQSVVEVPYARSEAHLTELLEEVADRMKEYGEQIDPSTHRKNYVRVVSRNGESSELDLQGIRIDSDISGTLKFAAESIVEEYEDELIEFFSREADNVKDKLASKRTDLADHALHRSHDEL [C28A;C31A;C86A;C137A;C164A;C171A] | disrupting interaction |

Variants of: B1
Settings: with Eif2ak3, Q9Z2B5
Remark: another data set of the same source

| Variant | effect of a mutation on the interaction |
| --- | --- |
| MKGWGWLALLLGVLLGTAWARRSQDLHAGAARALVDELEWEIARVDPKKTIQMGSFRINPDGSQSVVEVPYARSEAHLTELLEEVADRMKEYGEQIDPSTHRKNYVRVVSRNGESSELDLQGIRIDSDISGTLKFACESIVEEYEDELIEFFSREADNVKDKLCSKRTDLCDHALHRSHDEL [C28A;C31A;C86A] | increasing interaction |
